# Test system: Caskin2
# Experiment: GFP-Trap pulldown of Caskin2 by GFP-tagged Abi1 constructs in COS-7 cells
# Format: binding
# Settings: western blot
# Procedure: For transient expression, COS-7 cells were grown to 70% confluence in 10 cm culture dishes and transfected with plasmid DNAs using the DEAE–dextran method ([Schaapveld et al., 1998]). Briefly, 4.5 µg of plasmid DNA was mixed with 500 µg/ml DEAE–dextran in 2.5 ml PBS. Cells were washed two times with PBS and then incubated for 30 min at 37°C with the DEAE–dextran solution. Subsequently, 80 µM chloroquine was added to the cells in 10 ml DMEM with FCS and cells were incubated at 37°C for 3 h. After aspiration of the medium, the cells were treated with 3 ml of DMEM with FCS containing 10% DMSO for 2.5 min. The DMSO solution was then removed and replaced with fresh medium, after which the cells were further incubated for 48–72 h before analysis.
# For analysis of protein in whole-cell lysates, cells were washed three times with cold PBS, lysed in Nonidet P-40 lysis buffer [20 mM Tris-HCl pH 7.5, 100 mM NaCl, 1% NP-40), supplemented with Na3VO4 (1.5 mM), NaF (15 mM), protease inhibitor cocktail (1:1000; Sigma-Aldrich) and phosphatase inhibitor cocktail 3 (1:100; Sigma-Aldrich)] and cleared by centrifugation at 14,000 g for 1 h at 4°C. […]
# GFP-Trap pulldown experiments were performed as follows. Cleared lysates containing equal amounts of proteins, as determined by a Pierce™ BCA Protein Assay, were incubated with GFP-Trap agarose beads (Chromotek) in a rotation wheel for 6 h at 4°C. […]
molecule,measurement,value
"GFP–Abi1-DAWN: GFP-tagged Abi1 mutant harboring the mutations D453A and W455N (protein, left off: GFP, end not stated, kept, GFP-tagged Abi1 mutant harboring the mutations D453A and W455N) MAELQMLLEEEIPSGKRALIESYQNLTRVADYCENNYIQATDKRKALEETKAYTTQSLASVAYQINALANNVLQLLDIQASQLRRMESSINHISQTVDIHKEKVARREIGILTTNKNTSRTHKIIAPANMERPVRYIRKPIDYTVLDDVGHGVKWLKAKHGNNQPARTGTLSRTNPPTQKPPSPPMSGRGTLGRNTPYKTLEPVKPPTVPNDYMTSPARLGSQHSPGRTASLNQRPRTHSGSSGGSGSRENSGSSSIGIPIAVPTPSPPTIGPAPGSAPGSQYGTMTRQISRHNSTTSSTSSGGYRRTPSVTAQFSAQPHVNGGPLYSQNSISIAPPPPPMPQLTPQIPLTGFVARVQENIADSPTPPPPPPPDDIPMFDDSPPPPPPPPVDYEDEEAAVVQYNDPYADGDPAWAPKNYIEKVVAIYDYTKDKDDELSFMEGAIIYVIKKNDAGNYEGVCNRVTGLFPGNYVESIMHYTD",Caskin2 precipitation by Abi1 construct,unable to precipitate Caskin2

# Source: article PMC11166458, “Caskin2 is a novel talin- and Abi1-binding protein that promotes cell motility” (Journal of Cell Science, 2024)
